T1: MT-C34 peptide conjugated to bovine serum albumin (BSA-MT-C34 conjugate) (HIV-1, covalently conjugated to bovine serum albumin by the sulfo-SMCC linker)
T1 chain: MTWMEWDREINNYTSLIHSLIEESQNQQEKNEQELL

B1: C24-6 mouse monoclonal antibody against the MT-C34 peptide (mAb) (antibody, V domains shown)
VH: EVQLVESGGDLVKPGGSLKLSCAASGFTFSRFGMSWGRQTPDKRLEWVATISTGGSYTYYPDSVKGRFTISRDNAKNSLYLQMSSLKSEDTAMYYCARHDDTAVYAMDYWGQGTSVTVSS
VL: DVVMTQTPLSLPVSLGDQASISCRSSQSLVHSDGDTYLHWYLQKPGQSPKLLIYKVSNRFSGVPDRFSGSGSGTDFTLKISRAEAEDLGVYFCSQSTHVPLTFGAGTKLELK
B2: human chimeric anti-MT-C34 antibody (chAb) (antibody, V domains shown)
VH: EVQLVESGGDLVKPGGSLKLSCAASGFTFSRFGMSWGRQTPDKRLEWVATISTGGSYTYYPDSVKGRFTISRDNAKNSLYLQMSSLKSEDTAMYYCARHDDTAVYAMDYWGQGTSVTVSS
VL: DVVMTQTPLSLPVSLGDQASISCRSSQSLVHSDGDTYLHWYLQKPGQSPKLLIYKVSNRFSGVPDRFSGSGSGTDFTLKISRAEAEDLGVYFCSQSTHVPLTFGAGTKLELK

What was measured:
[1] = target: T1, MT-C34 peptide conjugated to bovine …; experiment: ELISA; replicate mAb-3, slope x 10^-8 M
[2] = target: T1, MT-C34 peptide conjugated to bovine …; experiment: ELISA; replicate chAb-1, slope x 10^-8 M

Binder	Kd [1] [nM]	Kd [2] [nM]
B1	2.26	–
B2	–	1.14

From publication PMC11428423 (2024)
